The values below come from paper PMC3375153, “The Role of Arg13 in Protein Phosphatase M tPphA from Thermosynechococcus elongatus” (Enzyme Research, 2012).

In general, Km refers to the concentration of substrate that gives half-maximal velocity. Usually kcat stands for the number of substrate molecules converted per active site and unit of time at saturation. What is called kcat/Km is the turnover number divided by the Michaelis constant.

To fix the notation:
B1: tPphA (Thermosynechococcus vestitus BP-1; R13N) (protein)
chain: MDVAGLTDCGLINKSNQDAFYIDEKHQRFFIVADGMGGHAGGEEASRLAVDHIRQYLETHLEDLQHDPVTLLRQAFLAANHAIVEQQRQNSARADMGTTAVVILLDEKGDRAWCAHVGDSRIYRWRKDQLQQITSDHTWIAQAVQLGSLTIEQARQHPWRHVLSQCLGREDLSQIDIQPIDLEPGDRLLLCSDGLTEELTDDVISIYLSEPNVQKAAAALVDAAKTHGGRDNVTVVVISV
B2: tPphA (Thermosynechococcus vestitus BP-1; R13P) (protein)
chain: MDVAGLTDCGLIPKSNQDAFYIDEKHQRFFIVADGMGGHAGGEEASRLAVDHIRQYLETHLEDLQHDPVTLLRQAFLAANHAIVEQQRQNSARADMGTTAVVILLDEKGDRAWCAHVGDSRIYRWRKDQLQQITSDHTWIAQAVQLGSLTIEQARQHPWRHVLSQCLGREDLSQIDIQPIDLEPGDRLLLCSDGLTEELTDDVISIYLSEPNVQKAAAALVDAAKTHGGRDNVTVVVISV
B3: tPphA (Thermosynechococcus vestitus BP-1; R13C) (protein)
chain: MDVAGLTDCGLICKSNQDAFYIDEKHQRFFIVADGMGGHAGGEEASRLAVDHIRQYLETHLEDLQHDPVTLLRQAFLAANHAIVEQQRQNSARADMGTTAVVILLDEKGDRAWCAHVGDSRIYRWRKDQLQQITSDHTWIAQAVQLGSLTIEQARQHPWRHVLSQCLGREDLSQIDIQPIDLEPGDRLLLCSDGLTEELTDDVISIYLSEPNVQKAAAALVDAAKTHGGRDNVTVVVISV
B4: tPphA (Thermosynechococcus vestitus BP-1; R13A) (protein)
chain: MDVAGLTDCGLIAKSNQDAFYIDEKHQRFFIVADGMGGHAGGEEASRLAVDHIRQYLETHLEDLQHDPVTLLRQAFLAANHAIVEQQRQNSARADMGTTAVVILLDEKGDRAWCAHVGDSRIYRWRKDQLQQITSDHTWIAQAVQLGSLTIEQARQHPWRHVLSQCLGREDLSQIDIQPIDLEPGDRLLLCSDGLTEELTDDVISIYLSEPNVQKAAAALVDAAKTHGGRDNVTVVVISV
B5: tPphA (Thermosynechococcus vestitus BP-1; R13H) (protein)
chain: MDVAGLTDCGLIHKSNQDAFYIDEKHQRFFIVADGMGGHAGGEEASRLAVDHIRQYLETHLEDLQHDPVTLLRQAFLAANHAIVEQQRQNSARADMGTTAVVILLDEKGDRAWCAHVGDSRIYRWRKDQLQQITSDHTWIAQAVQLGSLTIEQARQHPWRHVLSQCLGREDLSQIDIQPIDLEPGDRLLLCSDGLTEELTDDVISIYLSEPNVQKAAAALVDAAKTHGGRDNVTVVVISV
B6: tPphA (Thermosynechococcus vestitus BP-1) (protein)
chain: MDVAGLTDCGLIRKSNQDAFYIDEKHQRFFIVADGMGGHAGGEEASRLAVDHIRQYLETHLEDLQHDPVTLLRQAFLAANHAIVEQQRQNSARADMGTTAVVILLDEKGDRAWCAHVGDSRIYRWRKDQLQQITSDHTWIAQAVQLGSLTIEQARQHPWRHVLSQCLGREDLSQIDIQPIDLEPGDRLLLCSDGLTEELTDDVISIYLSEPNVQKAAAALVDAAKTHGGRDNVTVVVISV
B7: tPphA (Thermosynechococcus vestitus BP-1; R13G) (protein)
chain: MDVAGLTDCGLIGKSNQDAFYIDEKHQRFFIVADGMGGHAGGEEASRLAVDHIRQYLETHLEDLQHDPVTLLRQAFLAANHAIVEQQRQNSARADMGTTAVVILLDEKGDRAWCAHVGDSRIYRWRKDQLQQITSDHTWIAQAVQLGSLTIEQARQHPWRHVLSQCLGREDLSQIDIQPIDLEPGDRLLLCSDGLTEELTDDVISIYLSEPNVQKAAAALVDAAKTHGGRDNVTVVVISV
B8: tPphA (Thermosynechococcus vestitus BP-1; R13K) (protein)
chain: MDVAGLTDCGLIKKSNQDAFYIDEKHQRFFIVADGMGGHAGGEEASRLAVDHIRQYLETHLEDLQHDPVTLLRQAFLAANHAIVEQQRQNSARADMGTTAVVILLDEKGDRAWCAHVGDSRIYRWRKDQLQQITSDHTWIAQAVQLGSLTIEQARQHPWRHVLSQCLGREDLSQIDIQPIDLEPGDRLLLCSDGLTEELTDDVISIYLSEPNVQKAAAALVDAAKTHGGRDNVTVVVISV
B9: tPphA (Thermosynechococcus vestitus BP-1; R13Q) (protein)
chain: MDVAGLTDCGLIQKSNQDAFYIDEKHQRFFIVADGMGGHAGGEEASRLAVDHIRQYLETHLEDLQHDPVTLLRQAFLAANHAIVEQQRQNSARADMGTTAVVILLDEKGDRAWCAHVGDSRIYRWRKDQLQQITSDHTWIAQAVQLGSLTIEQARQHPWRHVLSQCLGREDLSQIDIQPIDLEPGDRLLLCSDGLTEELTDDVISIYLSEPNVQKAAAALVDAAKTHGGRDNVTVVVISV
B10: tPphA (Thermosynechococcus vestitus BP-1; R13Y) (protein)
chain: MDVAGLTDCGLIYKSNQDAFYIDEKHQRFFIVADGMGGHAGGEEASRLAVDHIRQYLETHLEDLQHDPVTLLRQAFLAANHAIVEQQRQNSARADMGTTAVVILLDEKGDRAWCAHVGDSRIYRWRKDQLQQITSDHTWIAQAVQLGSLTIEQARQHPWRHVLSQCLGREDLSQIDIQPIDLEPGDRLLLCSDGLTEELTDDVISIYLSEPNVQKAAAALVDAAKTHGGRDNVTVVVISV
B11: tPphA (Thermosynechococcus vestitus BP-1; R13S) (protein)
chain: MDVAGLTDCGLISKSNQDAFYIDEKHQRFFIVADGMGGHAGGEEASRLAVDHIRQYLETHLEDLQHDPVTLLRQAFLAANHAIVEQQRQNSARADMGTTAVVILLDEKGDRAWCAHVGDSRIYRWRKDQLQQITSDHTWIAQAVQLGSLTIEQARQHPWRHVLSQCLGREDLSQIDIQPIDLEPGDRLLLCSDGLTEELTDDVISIYLSEPNVQKAAAALVDAAKTHGGRDNVTVVVISV

Substrate in this data set: O=[N+]([O-])c1ccc(OP(=O)(O)O)cc1
In words: chromogenic phosphatase assay, A400. The conditions noted are these: 50 mM Tris-HCl pH 8.3, 50 mM NaCl, 1 mM DTT, 2 mM MnCl2, 30 °C, pNPP 0.1-10 mM. The class given is biochemical, Thermosynechococcus vestitus. An excerpt: chromogenic phosphatase assay, A400 on tPphA
Consider B1, for which the Km was determined as 4.73 ± 0.53 mM, the kcat was found to be 0.81 ± 0.04 s⁻¹ and the kcat/Km was found to be 171 ± 8 M⁻¹ s⁻¹.
Regarding B2, the Km was 4.77 ± 0.17 mM, the kcat was found to be 1.01 ± 0.02 s⁻¹ and the kcat/Km came to 212 ± 4 M⁻¹ s⁻¹.
The matching figures for B3: 4.27 ± 0.39 mM, 0.79 ± 0.01 s⁻¹ and 185 ± 2 M⁻¹ s⁻¹.
The matching figures for B4: 5.11 ± 0.23 mM, 1.56 ± 0.03 s⁻¹ and 305 ± 6 M⁻¹ s⁻¹.
The matching figures for B5: 3.30 ± 0.17 mM, 0.64 ± 0.01 s⁻¹ and 194 ± 3 M⁻¹ s⁻¹.
Take B6: the Michaelis-Menten constant (Km) stood at 1.06 ± 0.05 mM, the kcat stood at 2.25 ± 0.1 s⁻¹ and the kcat/Km is 2120 ± 94 M⁻¹ s⁻¹.
The matching figures for B7: 3.58 ± 0.22 mM, 1.17 ± 0.03 s⁻¹ and 327 ± 8 M⁻¹ s⁻¹.
As for B8, the Km was 1.39 ± 0.10 mM, the kcat turned out to be 1.22 ± 0.03 s⁻¹ and the kcat/Km came to 878 ± 21 M⁻¹ s⁻¹.
The matching figures for B9: 4.06 ± 0.21 mM, 0.5 ± 0.01 s⁻¹ and 123 ± 2 M⁻¹ s⁻¹.
On the same counts, the results for B10 are 4.31 ± 0.28 mM, 0.42 ± 0.01 s⁻¹ and 97 ± 2 M⁻¹ s⁻¹.
The matching figures for B11: 3.85 ± 0.32 mM, 1.06 ± 0.04 s⁻¹ and 275 ± 10 M⁻¹ s⁻¹.
